Assay results: the supplement of paper PMC10126150
± gives the standard deviation of the averaged measurements.

System: ATP
Test: switch fluorescence ratio, 500 uM ATP over buffer (Cy3 cluster intensity, sum of 5 cycles each) (fold (ratio)); higher = stronger signal-on switching upon ATP binding; sequences stand for … in TCGTCGGCAGCGTCAGATGTGTATAAGAGACAGTTTTTTTTTTTTTTTTTTTTTTTTT…TC
Conditions: aptamer strand: ATP DNA aptamer (quencher-CACCTGGGGGAGTATTGCGGAGGAAGG + anchor), 100 nM annealed; ATP concentration: 500 uM
In short: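 Switching-strand clusters labelled with Cy3 on a modified Illumina MiSeq flow-cell were annealed to 100 nM quencher-labelled ATP aptamer, imaged in selection buffer, and re-imaged after 15 min with 500 uM ATP at 22 °C. This was done over five cycles with NaOH stripping and re-annealing in between. The fluorescence ratio is summed target-cycle over summed buffer-cycle Cy3 intensity per cluster, averaged per switch-domain sequence, excluding clusters outside 100-1000 RFU.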
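Further: ATP exposure 15 min at 22 °C before imaging.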

Sequence	switch fluorescence ratio
TTTATGGTGG	1.01 ± 0.013
TTTATGTAGG	0.9887 ± 0.0044
TTTATGTATG	1.02 ± 0.034
TTTATTAATT	1 ± 0.029
TTTATTAGCT	1.02 ± 0.043
TTTATTAGGG	0.975 ± 0.021
TTTATTATTG	0.989 ± 0.035
TTTATTCCTT	1.02 ± 0.018
TTTATTCTAT	1.02 ± 0.011
TTTATTGAGT	0.978 ± 0.048
TTTATTGGAA	0.9858 ± 0.0091
TTTATTGTGG	0.9934 ± 0.0071
TTTATTTATG	1.007 ± 0.0065
TTTATTTATT	0.998 ± 0.021
TTTATTTCCA	0.996 ± 0.03
TTTATTTGCT	0.9809 ± 0.0098
TTTATTTGTT	1 ± 0.021
TTTATTTTG	0.95563 ± 0.00051
TTTATTTTGG	0.995 ± 0.053
TTTCAAACCT	1.57 ± 0.64
TTTCAAAGAT	1.22 ± 0.41
TTTCAAAGGC	1.17 ± 0.2

Sequence	switch fluorescence ratio
TTTCAAATGG	0.975 ± 0.028
TTTCAACTAC	1.25 ± 0.23
TTTCAAGATT	0.998 ± 0.015
TTTCAAGGGA	0.9904 ± 0.0048
TTTCAATTTG	1.04 ± 0.049
TTTCACGCAA	3.98 ± 1.1
TTTCACTTTT	0.991 ± 0.032
TTTCAGAAGG	1.01 ± 0.023
TTTCAGACAG	0.9921 ± 0.0014
TTTCAGCTGG	0.997 ± 0.027
TTTCAGGTAA	0.988 ± 0.017
TTTCAGGTCG	1.02 ± 0.088
TTTCAGGTTG	0.982 ± 0.041
TTTCAGTGGT	0.986 ± 0.024
TTTCAGTGTT	1.05 ± 0.099
TTTCAGTTTC	1.02 ± 0.043
TTTCATACCT	1.23 ± 0.14
TTTCATAGCA	1.283 ± 0.012
TTTCATATGA	1 ± 0.0082
TTTCATCGCC	1.01 ± 0.012
TTTCATCTTG	0.9706 ± 0.0034
TTTCATGAAT	0.987 ± 0.0027

Sequence	switch fluorescence ratio
TTTCATGGTG	1.0484 ± 0.00021
TTTCATGTTA	0.987 ± 0.0084
TTTCATTAGT	0.99 ± 0.045
TTTCATTATT	1.02 ± 0.02
TTTCATTCTT	1 ± 0.033
TTTCATTGGC	0.986 ± 0.028
TTTCATTTGT	1.02 ± 0.075
TTTCCAATCT	1.08 ± 0.13
TTTCCATATT	0.984 ± 0.019
TTTCCCATTT	1 ± 0.064
TTTCCCGGGT	1.0123 ± 0.00051
TTTCCCTCGT	1.16 ± 0.17
TTTCCGACGT	1.46 ± 0.62
TTTCCGGGTG	2.5 ± 1.1
TTTCCGTGAG	1.63 ± 0.98
TTTCCTAGTT	1.032 ± 0.0028
TTTCCTGTGT	1.01 ± 0.017
TTTCCTTTGT	1.01 ± 0.049
TTTCCTTTT	1.014 ± 0.0083
TTTCGAACAT	1.03 ± 0.068
TTTCGACCGA	1.03 ± 0.033
TTTCGACCTG	0.9871 ± 0.0046

Sequence	switch fluorescence ratio
TTTCGACGCT	2.18 ± 0.85
TTTCGAGAAC	0.9873 ± 0.0066
TTTCGAGGAT	1.006 ± 0.0044
TTTCGAGGGA	1 ± 0.025
TTTCGATTAC	1.07 ± 0.018
TTTCGATTGC	1.004 ± 0.01
TTTCGATTTG	1.02 ± 0.012
TTTCGCAGAA	1.1 ± 0.1
TTTCGCCATG	0.995 ± 0.026
TTTCGCGACA	1.34 ± 0.5
TTTCGCGGGT	1.05 ± 0.067
TTTCGCTATG	1.04 ± 0.024
TTTCGCTCGC	1.13 ± 0.02
TTTCGCTCTT	1.12 ± 0.25
TTTCGGAAGC	1.005 ± 0.0015
TTTCGGACAA	1.46 ± 0.5
TTTCGGGCGC	1.05 ± 0.047
TTTCGTAAGA	0.995 ± 0.016
TTTCGTAGAG	1 ± 0.011
